According to patent publication US5756665A, “Peptide isolated from micrococcus varians and use thereof” (priority 1995, dated 1998):

What was measured:
Assay type in all cases: cell-based
[1] = test system: strain Lactococcus lactis which produces lacticin 481; experiment: Inhibition spectrum test on the lacticin 481 producer
[2] = test system: Lactobacillus helveticus (N 2); experiment: Resistance to pH, agar well test; conditions: pH 2 to 10
Gram-negative bacteria = experiment: Inhibition spectrum, summary for Gram-negative bacteria; conditions: summary of Table V
Text: The inhibition spectrum of the supernatant is thus determined.

[3] = test system: Lactobacillus helveticus (N 2); experiment: Inactivation by enzymes, agar well test
[4] = test system: Lactobacillus helveticus (N 2); experiment: Resistance to heat and to pH, agar well test; conditions: pH 4 or 7 combined with elevated temperature
[5] = test system: Lactobacillus helveticus (N 2); experiment: Resistance to heat, agar well test; conditions: 60 min incubation at 100 °C

Substance | growth of the lacticin 481-producing strain in the presence of the bacteriocin [1] | pH dependence of bactericidal activity [2] | inhibitory effect on the growth of Gram-negative bacteria (Gram-negative bacteria) | influence of catalase on bactericidal activity ([3]; Tables I and II, two indicator strains) | effect of proteolytic enzymes on bactericidal activity ([3]; all proteolytic enzymes of Tables I and II) | bactericidal activity after heat and pH [4] | bactericidal activity after heat [5]
lacticin 481 | immune | – | – | – | – | – | –
variacin: bacteriocin from Micrococcus varians strains CNCM I-1586 and CNCM I-1587, amino acid sequence SEQ ID NO:1, 2659 daltons (GSGVIPTISHECHMNSFQFVFTCCS) | – | not pH-dependent | does not exert any inhibitory effect | not found to exert any influence | suppress the bactericidal activity | not compromised | not compromised
